Laboratory results as given in publication PMC4047408, “Assembly of the Respiratory Mucin MUC5B” (The Journal of Biological Chemistry, 2014).
One block for each molecule: values may come before it.

Legend:
[1] = target: disulfide-linked NT5B dimer (human) (UniProt Q9HC84); test: AUC; sedimentation velocity, 35,000 rpm, 20 °C; NT5B in 5 mM CaCl2 at pH 5
[2] = target: disulfide-linked NT5B dimer (human) (UniProt Q9HC84); test: AUC; sedimentation velocity, 35,000 rpm, 20 °C; NT5B in 5 mM CaCl2 at pH 6; reversed by 10 mM EGTA and pH 7.4
[3] = target: disulfide-linked NT5B dimer (human) (UniProt Q9HC84); test: SEC-MALLS; NT5B in 5 mM CaCl2 at pH 6, Superose 6 10/300, 25 mM Hepes, 150 mM NaCl; recovery in the dimer peak compared with 5 mM EGTA at pH 6
[4] = target: recombinant MUC5B N terminus D1-D2-D′-D3 (NT5B), from A549 cells (human) (UniProt Q9HC84); test: SDS-PAGE (reduced and nonreduced) and Western blot with anti-His antibody; conditioned medium of transiently transfected A549 cells
[5] = target: recombinant MUC5B N terminus D1-D2-D′-D3 (NT5B), from 293-EBNA cells (human) (UniProt Q9HC84); test: AUC; sedimentation velocity, 35,000 rpm, 20 °C; NT5B in 5 mM EGTA at pH 7.4 or pH 6, or 5 mM CaCl2 at pH 7.4
[6] = target: recombinant MUC5B N terminus D1-D2-D′-D3 (NT5B), from 293-EBNA cells (human) (UniProt Q9HC84); test: SDS-PAGE, reduced and nonreduced; purified recombinant proteins from 293-EBNA conditioned medium; shows disulfide-linked dimers
[7] = target: recombinant MUC5B N terminus D1-D2-D′-D3 (NT5B), from 293-EBNA cells (human) (UniProt Q9HC84); test: SEC-MALLS; Superose 6 10/300, 25 mM Hepes, 150 mM NaCl, with 5 mM CaCl2 or 5 mM EGTA at pH 7.4 or pH 6, room temperature, after overnight incubation at 4 °C
[8] = target: the molecule itself; test: SDS-PAGE, reduced and nonreduced; purified recombinant proteins from 293-EBNA conditioned medium; shows disulfide-linked dimers

higher order multimeric species, percent of total [1]: 44 % of total
multimeric fraction (peak III), percent of total [2]: 29 % of total
reduction of protein recovered in the dimer peak (5 mM CaCl2 pH 6 against 5 mM EGTA pH 6) [3]: 15%
Molecule: disulfide-linked NT5B dimer (from UniProt Q9HC84 26-1304) (complex)

stoichiometry N [4]: 2
Molecule: recombinant MUC5B N terminus D1-D2-D′-D3 (NT5B), from A549 cells (from UniProt Q9HC84 26-1304) (domain or fragment)

stoichiometry N [5]: 2
stoichiometry N [6]: 2
stoichiometry N [7]: 2
Molecule: recombinant MUC5B N terminus D1-D2-D′-D3 (NT5B), from 293-EBNA cells (from UniProt Q9HC84 26-1304) (domain or fragment)

B1: recombinant MUC5B D2-D′-D3 domains (domain or fragment, human, UniProt Q9HC84 425-1304, looked up)
chain: CSVQGGAHISTYDEKLYDLHGDCSYVLSKKCADSSFTVLAELRKCGLTDNENCLKAVTLSLDGGDTAIRVQADGGVFLNSIYTQLPLSAANITLFTPSSFFIVVQTGLGLQLLVQLVPLMQVFVRLDPAHQGQMCGLCGNFNQNQADDFTALSGVVEATGAAFANTWKAQAACANARNSFEDPCSLSVENENYARHWCSRLTDPNSAFSRCHSIINPKPFHSNCMFDTCNCERSEDCLCAALSSYVHACAAKGVQLSDWRDGVCTKYMQNCPKSQRYAYVVDACQPTCRGLSEADVTCSVSFVPVDGCTCPAGTFLNDAGACVPAQECPCYAHGTVLAPGEVVHDEGAVCSCTGGKLSCLGASLQKSTGCAAPMVYLDCSNSSAGTPGAECLRSCHTLDVGCFSTHCVSGCVCPPGLVSDGSGGCIAEEDCPCVHNEATYKPGETIRVDCNTCTCRNRRWECSHRLCLGTCVAYGDGHFITFDGDRYSFEGSCEYILAQDYCGDNTTHGTFRIVTENIPCGTTGTTCSKAIKLFVESYELILQEGTFKAVARGPGGDPPYKIRYMGIFLVIETHGMAVSWDRKTSVFIRLHQDYKGRVCGLCGNFDDNAINDFATRSRSVVGDALEFGNSWKLSPSCPDALAPKDPCTANPFRKSWAQKQCSILHGPTFAACRSQVDSTKYYEACVNDACACDSGGDCECFCTAVAAYAQACHDAGLCVSWRTPDTCPLFCDFYNPHGGCEWHYQPCGAPCLKTCRNPSGHCLVDLPGLEGCYPKCPPSQPFFNEDQMKCVAQCGCYDKDGNYYDVGARVPTAENCQSCNCTPSGIQCAHSLEACTCTYEDRTYSYQDVIYNTTDGLGACLIAICGSNGTIIRKAVACPG
notes: MUC5B, human, D2-D′-D3 domains, residues 425-1304
stoichiometry N [8]: 2

B2: recombinant MUC5B D3 domain (domain or fragment, human, UniProt Q9HC84 894-1304, looked up)
chain: TCVAYGDGHFITFDGDRYSFEGSCEYILAQDYCGDNTTHGTFRIVTENIPCGTTGTTCSKAIKLFVESYELILQEGTFKAVARGPGGDPPYKIRYMGIFLVIETHGMAVSWDRKTSVFIRLHQDYKGRVCGLCGNFDDNAINDFATRSRSVVGDALEFGNSWKLSPSCPDALAPKDPCTANPFRKSWAQKQCSILHGPTFAACRSQVDSTKYYEACVNDACACDSGGDCECFCTAVAAYAQACHDAGLCVSWRTPDTCPLFCDFYNPHGGCEWHYQPCGAPCLKTCRNPSGHCLVDLPGLEGCYPKCPPSQPFFNEDQMKCVAQCGCYDKDGNYYDVGARVPTAENCQSCNCTPSGIQCAHSLEACTCTYEDRTYSYQDVIYNTTDGLGACLIAICGSNGTIIRKAVACPG
notes: MUC5B, human, D3 domain, residues 894-1304; also called D3 protein
stoichiometry N [8]: 2
